Measurements reported in US20210155676A1 (Gilead, published 2021).

Assays:
gp140 SHIV SF162P3 = biological target: T1, gp140 SHIV SF162P3 (SHIV SF162P3); assay: ELISA, gp140 coated
T1 construct: domain: gp140; also called SHIV gp140
Protocol: (§1) The in vitro binding characteristics of antibodies for both the antigen (HIV gp120) and Fc binding receptors (FcγRs, FcRn) were determined using an Enzyme-Linked Immunosorbant Assay (ELISA).

gp140 BaL = biological target: T2, gp140 BaL (HIV-1 strain BaL); assay: ELISA, gp140 coated
T2 construct: domain: gp140
Protocol: as §1

[1] = biological target: HIV-1 92US727 Env (on virus) (HIV-1 isolate 92US727); assay: cell-based or functional assay
[2] = biological target: HIV-1 92US657 Env (on virus) (HIV-1 isolate 92US657); assay: cell-based or functional assay
HIV-1 BaL Env (on virus) = HIV-1 BaL Env (on virus) (HIV-1 strain BaL); assay: cell-based or functional assay
[3] = biological target: HIV-1 93HT593 Env (on virus) (HIV-1 isolate 93HT593); assay: cell-based or functional assay
[4] = biological target: HIV-1 92US712 Env (on virus) (HIV-1 isolate 92US712); assay: cell-based or functional assay
human FcγRIIIA [5] = biological target: T3, human FcγRIIIA (human, UniProt P08637 17-254); assay: cell-based or functional assay
T3 sequence (P08637 17-254): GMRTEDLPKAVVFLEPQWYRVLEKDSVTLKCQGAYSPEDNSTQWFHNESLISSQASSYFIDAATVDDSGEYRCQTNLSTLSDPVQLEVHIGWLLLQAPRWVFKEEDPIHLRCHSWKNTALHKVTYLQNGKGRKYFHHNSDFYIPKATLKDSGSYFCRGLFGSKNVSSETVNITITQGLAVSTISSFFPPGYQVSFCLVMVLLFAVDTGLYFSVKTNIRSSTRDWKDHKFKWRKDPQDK

human FcγRIIIA [6] = biological target: T3, human FcγRIIIA; assay: cell-based or functional assay; remark: listed apart in the source
human FcγRIIIA [7] = biological target: T3, human FcγRIIIA; assay: cell-based or functional assay; remark: listed apart in the source

B1: PGT121.42 hIgG1/hLambda (antibody)
heavy: QMQLQESGPGLVKPSETLSLTCSVSGASISDSYWSWIRRSPGKGLEWIGYVHKSGDTNYNPSLKSRVHLSLDTSKNQVSLSLSSVTAADSGKYYCARTLHGRRIYGIVAFNEWFTYFYMDVWGKGTQVTVSSASTKGPSVFPLAPSSKSTSGGTAALGCLVKDYFPEPVTVSWNSGALTSGVHTFPAVLQSSGLYSLSSVVTVPSSSLGTQTYICNVNHKPSNTKVDKKVEPKSCDKTHTCPPCPAPELLAGPDVFLFPPKPKDTLMISRTPEVTCVVVDVSHEDPEVKFNWYVDGVEVHNAKTKPREEQYNSTYRVVSVLTVLHQDWLNGKEYKCKVSNKALPLPEEKTISKAKGQPREPQVYTLPPSREEMTKNQVSLTCLVKGFYPSDIAVEWESNGQPENNYKTTPPVLDSDGSFFLYSKLTVDKSRWQQGNVFSCSVLHEALHSHYTQKSLSLSPGK
light: not shown
notes: also called PTG121.42
EC50 (gp140 SHIV SF162P3): 0.45 nM
EC50 (gp140 BaL): 0.52 nM
neutralization IC50, HIV-1 US727, CEM.NKr.CCR5.Luc assay [1]: 0.015 µg/mL
neutralization IC50, HIV-1 US657, CEM.NKr.CCR5.Luc assay [2]: 0.096 µg/mL
neutralization IC50, HIV-1 BaL, CEM.NKr.CCR5.Luc assay (HIV-1 BaL Env (on virus)): 0.015 µg/mL
neutralization IC50, HIV-1 HT593, CEM.NKr.CCR5.Luc assay [3]: 0.155 µg/mL
neutralization IC50, HIV-1 US712, CEM.NKr.CCR5.Luc assay [4]: 0.02 µg/mL
NK ADCC EC50, BaL-infected CD4+ T cells, donor A4590 (human FcγRIIIA [5]): 1.2 nM
NK ADCC EC50, BaL-infected CD4+ T cells, donor A4591 (human FcγRIIIA [5]): 0.02 nM
NK ADCC EC50, BaL-infected CD4+ T cells, donor A4813 (human FcγRIIIA [5]): 4.4 nM
NK ADCC EC50, BaL-infected CD4+ T cells, donor A4838 (human FcγRIIIA [5]): 0.5 nM
NK ADCC EC50, BaL-infected CD4+ T cells, donor A4839 (human FcγRIIIA [5]): 3.9 nM
NK ADCC EC50, BaL-infected CD4+ T cells, geomean of donors (human FcγRIIIA [5]): 0.7 nM
NK ADCC EC50, HT593-infected CD4+ T cells, donor 1 (human FcγRIIIA [6]): 0.024 nM
NK ADCC EC50, HT593-infected CD4+ T cells, donor A4588 (human FcγRIIIA [6]): 0.176 nM
NK ADCC EC50, HT593-infected CD4+ T cells, donor A4589 (human FcγRIIIA [6]): 0.18 nM
NK ADCC EC50, HT593-infected CD4+ T cells, donor A4813 (human FcγRIIIA [6]): 4.9 nM
NK ADCC EC50, HT593-infected CD4+ T cells, donor A4838 (human FcγRIIIA [6]): 0.62 nM
NK ADCC EC50, HT593-infected CD4+ T cells, donor A4839 (human FcγRIIIA [6]): 5.2 nM
NK ADCC EC50, HT593-infected CD4+ T cells, donor X (human FcγRIIIA [6]): 0.014 nM
NK ADCC EC50, HT593-infected CD4+ T cells, geomean of donors (human FcγRIIIA [6]): 0.3 nM
NK ADCC EC50, US657-infected CD4+ T cells, donor A4588 (human FcγRIIIA [7]): 4.3 nM
NK ADCC EC50, US657-infected CD4+ T cells, donor A4589 (human FcγRIIIA [7]): 1.5 nM
NK ADCC EC50, US657-infected CD4+ T cells, donor A4595 (human FcγRIIIA [7]): 0.57 nM
NK ADCC EC50, US657-infected CD4+ T cells, donor A4813 (human FcγRIIIA [7]): 1.4 nM
NK ADCC EC50, US657-infected CD4+ T cells, donor A4838 (human FcγRIIIA [7]): 0.94 nM
NK ADCC EC50, US657-infected CD4+ T cells, donor A4839 (human FcγRIIIA [7]): 0.54 nM
NK ADCC EC50, US657-infected CD4+ T cells, geomean of donors (human FcγRIIIA [7]): 1.2 nM
